As a reminder, the stoichiometry N is the number of molecules, sites or subunits per partner or assembly.

The record followed here is article PMC5928126 (Nature Communications, 2018).

The data set concerns the molecule itself. Kind of data set: cryo-EM structure.

B1: measles virus fusion glycoprotein (F) (natural protein)
chain: QIHWGNLSKIGVVGIGSASYKVMTRSSHQSLVIKLMPNITLLNNCTRVEIAEYRRLLRTVLEPIRDALNAMTQNIRPVQSVASSRRHKRFAGVVLAGAALGVATAAQITAGIALHQSMLNSQAIDNLRASLETTNQAIEAIRQAGQEMILAVQGVQDYINNELIPSMNQLSCDLIGQKLGLKLLRYYTEILSLFGPSLRDPISAEISIQALSYALGGDINKVLEKLGYSGGDLLGILESRGIKARITHVDTESYFIVLSIAYPTLSEIKGVIVHRLEGVSYNIGSQEWYTTVPKYVATQGYLISNFDESSCTFMPEGTVCSQNALYPMSPLLQECLRGSTKSCARTLVSGSFGNRFILSQGNLIANCASILCKCYTTGTIINQDPDKILTYIAADHCPVVEVNGVTIQVGSRRYPDAVYLHRIDLGPPISLERLDVGTNLGNAIAKLEDAKELLESSDQILRSMKGLSSTSIVYILIAVCLGGLIGIPALICCCRGRCNKKGEQVGMSRPGLKPDLTGTSKSYVRSL
notes: also called MeV F; pre-fusion F
On to B1, for which the “stoichiometry N” value worked out at 3.
